# ± gives the uncertainty stated by the source.
# Test: amyloid nucleation score (Sup35N fusion, yeast selection) (log enrichment); library NNK3; higher = more nucleation; inactive = no reads after selection
# Procedure, shortened: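 Libraries of peptides of 20 random codons fused to Sup35N were expressed in psi-negative yeast and induced 24 hours with 100 μM copper sulfate. Selection was 7 days at 30°C on medium lacking adenine and uracil, and plasmid inserts were Illumina-sequenced before and after selection. Nucleation score is the DiMSum log enrichment of output over input reads, centred on the mode score of non-aggregating sequences, and sequences with under 100 input reads were left out.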
row,Substance,amyloid nucleation score
1,EWSLKIVTMNMASWM,inactive
2,VLRVMCRCDCNTGFAKRESV,inactive
3,SFLDMIRCDINLIYKRHRLG,inactive
4,VWFLLPRGLRCV,inactive
5,EAYEAQD,inactive
6,LTFISLSLGPDSRFSMTKYY,inactive
7,AKNSKKSMLSVNGDRNDQSF,inactive
8,FLLKEWLK,-0.626 ± 0.9
9,NLKAM,inactive
10,PRLHRECNEGEVGL,0.206 ± 0.81
11,SGLWW,inactive
12,MKLWFNTARLDMKVSKTVYS,inactive
13,IDSNE,inactive
14,DLNMGYKFLISKYSWPVYPM,inactive
15,PAADHLAKRCSMICSSSFAL,inactive
16,CDFIDVS,inactive
17,WYWSSNPSGTDVGIDGVRIS,inactive
18,FYRCLLNH,inactive
19,GESSP,inactive
20,FAYLF,inactive
21,LITKWKWEFANTQWRSGQKG,1.36 ± 0.15
22,YLDKCIVVCFRVRNSNSFWL,2.42 ± 0.065
23,RSVFTTSCH,inactive

row,Substance,amyloid nucleation score
1,VDTKFSISYTGKTC,inactive
2,LNWLAFSR,inactive
3,RKGLL,inactive
4,HRSIRLYSETDWFRGLGSAG,inactive
5,EDHFSLHACVSSGTLSKVVY,inactive
6,RVRRGSHCNTFKKSLRLRCA,inactive
7,AVVSIVVLRDKRTFLGRLYL,1.53 ± 0.087
8,YRDRFAKSSYKSPKMYQYGS,inactive
9,ASLPVLPSNPDKSEGAKGHE,-0.681 ± 1.2
10,FHTPRILYTMNS,inactive
11,RMGLTEMWHVIPSITSRQYL,inactive
12,IFVCKRLMRGLVR,inactive
13,INITLWWVTVEFNMSARVQI,inactive
14,IAAQSRRVGRCDIASLQLLE,inactive
15,RVSWGARVHIWCSLDLVCRF,inactive
16,LLVSACA,inactive
17,YLLLDYGTRSFLYDRYRYIR,0.067 ± 0.68
18,GILSISQNKISVHPLLLLRI,inactive
19,WCQCRKLFWVYAHGEHFSSC,1.09 ± 0.12
20,SHSAFEGKVC,inactive
21,IQNANVRHYKRHRKFLTFIS,1.27 ± 0.11
22,CLYNGMWSCVEWNSKGSMHL,1.26 ± 0.069
23,IYRGHVRQKELFCHRREIQW,inactive

row,Substance,amyloid nucleation score
1,LSGLRNAVERVVAGFIHGRV,inactive
2,NLIWTVHLVVTSVISDLCVG,inactive
3,PPCWLYDFVTNVNNWWYEHC,inactive
4,RIYTYKRIYRIKVLITWNRL,inactive
5,CVASR,inactive
6,RRMLIGFHVFSYYWDNEYTR,0.611 ± 0.14
7,NIICTWCGGFMRLNLNV,1.9 ± 0.073
8,ICYRRPTSSMP,inactive
9,LFVMSLFGHLGLQIYRCLAL,inactive
10,WKEVGHGRSASPSALK,inactive
11,GFNYVFDSGEFGDRSFWHIY,inactive
12,TCSDDCFLMKWYEDIRSVVT,inactive
13,CQKRETVFIKRD,inactive
14,CLSGRCRASMLPLGRVSKCD,inactive
15,LIDSADWRCVMVVIRLGRCR,inactive
16,CFAHSLMR,inactive
17,IVCCQYQNYLNGSPLNIVLI,inactive
18,IVQAFVSVLSY,inactive
19,TLGVGP,inactive
20,LLTNLCIQYISSTLYYDRLF,inactive
21,VIFFSRSAYYKVISGRVI,inactive
22,VFRLKSVLSGLLQAHRLAGI,inactive
23,PSSSYPKSLRINMAFSFLMC,0.49 ± 0.53

row,Substance,amyloid nucleation score
1,ASRAESVVGSFFCFFL,2.17 ± 0.087
2,KTIFSDVFYLRALWCSLNRG,inactive
3,ALSSNKSCVQYS,inactive
4,QLFTVTLQLTLLSKIDTANL,1.03 ± 0.13
5,PVGHSSMSLYRGR,inactive
6,NTWPTPSLWLVLNKTLRKTS,inactive
7,EYNPTYYFYRTFMAFFLKMI,inactive
8,RDTYQSSCDWQW,0.077 ± 0.87
9,FSALWTRHKWNFPRMTTFAR,inactive
10,VTFKDMDTHGWVHLSIHVAE,inactive
11,YIYVIGWGNVLCGI,2.22 ± 0.079
12,NWDWADE,inactive
13,IPVQFFVQIRSGIVHFWHER,1.81 ± 0.11
14,YGEEEVE,inactive
15,VPNLEVSLKAFSSIVSFVRG,inactive
16,VWILCNRPKRRMIYLTQCRM,inactive
17,MIVARMLVSIYKSWTIILRY,inactive
18,GKSIYCWFWVKMQEAERLMS,inactive
19,LYGLVWYTQVGLLNVYSKIY,1.24 ± 0.18
20,ACSVHFFHARW,1.49 ± 0.14
21,TWEVYTMCIRNGGVLGLFIF,inactive
22,TLSFCWWRFMLVCRGVGGGR,inactive
23,VGWIHYCQGTYKRMFGITGR,inactive

row,Substance,amyloid nucleation score
1,RCIYTMVWVTNVNMVRRTGA,1.69 ± 0.084
2,YNNTVCL,inactive
3,KGYSRYQSVHRSNRELYNQA,-0.563 ± 0.64
4,SISIFHNCF,2.66 ± 0.063
5,SLIDRIIVKPKVWTGGKNYP,inactive
6,LSYYVS,inactive
7,IVRHVVYVSCGIQYCDHFWH,inactive
8,STMDSIYQFL,inactive
9,GHTRDFKGSFDFPLNFY,inactive
10,NYEQCNSHSCMIFLFRTDYS,inactive
11,RSRRFGYSAAISFTIGNLNS,1.28 ± 0.13
12,LYVFRCHLVVNDLNATNCSR,inactive
13,ILWLLILTFLNRRARCIEQN,-0.567 ± 0.51
14,IRRHYAYCYNISTITVIAEI,inactive
15,NTGLNFCRASLSWTLGLYSS,inactive
16,VIMRMFSFARLFVGSYPFRV,inactive
17,YTLPGIQAGFWARCVSHTRL,inactive
18,RCRDGTILALC,inactive
19,AWRSMSGVTYPQGTSLPFSK,inactive
20,GEHSGRYYSNVSKNESMGVI,inactive
21,LCCFCCDPHLR,2.64 ± 0.061
22,YMRSIGSIFFILYCMQSAHG,0.121 ± 0.33
23,IVVRPR,1.24 ± 0.17

row,Substance,amyloid nucleation score
1,MQSAVNVV,inactive
2,PRRTNKVARGGRHARVRKVE,inactive
3,RDRSVKRVVHSGFRFSIGEA,inactive
4,ENLLISKRCINGMA,inactive
5,YFSMIVVGCVNFKELPDNRV,1.78 ± 0.086
6,MLELLTFTDFLGTTDITRNS,-0.113 ± 0.39
7,SLRFCWILGENQSGTCSIKR,1.16 ± 0.15
8,PHCVWDFLVRYGMDENRVKY,inactive
9,IIRVGMLWVGKLLRRSWGEQ,inactive
10,LGTPYMDMRG,1.29 ± 0.15
11,MWPYIMILGIVDTMWLLLSP,inactive
12,GASREFQTCSVGVYYVAIEK,inactive
13,SLLWSLSTYNVRIIHMM,inactive
14,RTYLDYGVNALLCPLTWGFS,-0.071 ± 0.73
15,LIISFKYCFPWKVVSTSVYN,1.17 ± 0.17
16,VTSYYSHISYVTL,inactive
17,WSIRYVLICIGVSKIVCRPL,inactive
18,SQGQY,-0.672 ± 1.4
19,STCRWLFNNA,0.257 ± 0.16
20,IYLNFNKILLMILQIQLWGN,-0.19 ± 0.64
21,IRQVLCCESLRLGSYMQINT,inactive
22,LYLRQKYLRALTNFNFPRAT,inactive
23,LTVRSHHQAGDMCRRRAISP,inactive

row,Substance,amyloid nucleation score
1,RLYFYDEKCIGCHGSNSLTQ,inactive
2,SKFLVNGAGLDELDVLVCLL,inactive
3,KLMLHNEYMPGVQLLLNQYK,0.436 ± 0.46
4,MELSGSIMRIEMLYFFMRHK,inactive
5,CMYILFINVCMATGANYGSY,1.58 ± 0.092
6,LSIIRKVADRGDPSDLYKMV,inactive
7,TSTNNSRKYSSQRRWMHPLG,inactive
8,FLLNLMIHLFYLVLKSRNQN,inactive
9,SIPWLIVINTSHLLVIFNAI,inactive
10,AGSIGPVRSRGIMLTRLEV,-0.42 ± 1.8
11,LRDMTGILPRGRFADETSRF,inactive
12,QHMSRYYVFLLNCIQCIMNG,1.58 ± 0.12
13,LYLRV,inactive
14,NLRFIRGANSA,inactive
15,LVKPNVDFVT,inactive
16,EYRGKIDVYYLIGQNYSVSC,0.621 ± 0.27
17,FWYSYQ,inactive
18,SARISNAVNDSFTGKTMYNK,inactive
19,HSINV,inactive
20,FWQSIYDGMGSVIFHHGFTQ,0.434 ± 0.14
21,TPRQFSDGCISFNKVTINPQ,0.704 ± 0.34
22,MSLGFALVSILVCF,inactive

# From the supplement of paper PMC12042874
